One test concerns the target T1, G9a and GLP (Homo sapiens, UniProt Q96KQ7+Q9H9B1).
T1 sequence (Q96KQ7 2-1210 limits assumed): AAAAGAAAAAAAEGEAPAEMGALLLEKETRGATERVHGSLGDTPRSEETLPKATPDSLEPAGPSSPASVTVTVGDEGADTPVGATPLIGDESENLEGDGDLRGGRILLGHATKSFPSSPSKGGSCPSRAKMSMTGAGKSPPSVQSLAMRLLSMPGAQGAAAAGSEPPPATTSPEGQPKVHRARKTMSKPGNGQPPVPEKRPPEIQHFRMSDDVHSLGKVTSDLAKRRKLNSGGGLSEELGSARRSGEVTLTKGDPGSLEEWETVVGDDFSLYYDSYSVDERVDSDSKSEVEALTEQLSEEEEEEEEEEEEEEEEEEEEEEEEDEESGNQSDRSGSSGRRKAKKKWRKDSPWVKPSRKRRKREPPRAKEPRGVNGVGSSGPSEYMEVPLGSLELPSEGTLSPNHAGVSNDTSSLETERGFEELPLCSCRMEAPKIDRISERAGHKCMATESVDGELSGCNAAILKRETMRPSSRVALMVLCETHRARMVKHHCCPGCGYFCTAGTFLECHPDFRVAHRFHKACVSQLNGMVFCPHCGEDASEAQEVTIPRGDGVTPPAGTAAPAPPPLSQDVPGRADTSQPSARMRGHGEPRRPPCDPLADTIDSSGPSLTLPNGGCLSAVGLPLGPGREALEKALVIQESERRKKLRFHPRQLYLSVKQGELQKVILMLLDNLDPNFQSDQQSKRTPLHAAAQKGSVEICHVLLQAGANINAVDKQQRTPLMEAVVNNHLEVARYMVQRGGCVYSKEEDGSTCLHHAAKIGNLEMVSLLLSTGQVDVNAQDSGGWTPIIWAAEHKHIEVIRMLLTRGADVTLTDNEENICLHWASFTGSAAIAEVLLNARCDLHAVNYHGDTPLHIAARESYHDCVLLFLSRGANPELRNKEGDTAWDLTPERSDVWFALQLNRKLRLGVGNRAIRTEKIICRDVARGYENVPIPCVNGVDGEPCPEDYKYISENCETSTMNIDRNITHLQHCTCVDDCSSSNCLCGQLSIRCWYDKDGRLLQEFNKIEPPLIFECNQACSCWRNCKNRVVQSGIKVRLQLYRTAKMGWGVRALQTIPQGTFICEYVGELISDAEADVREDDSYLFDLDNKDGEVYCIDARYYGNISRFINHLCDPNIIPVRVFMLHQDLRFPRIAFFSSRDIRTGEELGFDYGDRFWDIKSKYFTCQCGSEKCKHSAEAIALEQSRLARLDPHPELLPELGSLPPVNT
T1 sequence (Q9H9B1 2-1298 limits assumed): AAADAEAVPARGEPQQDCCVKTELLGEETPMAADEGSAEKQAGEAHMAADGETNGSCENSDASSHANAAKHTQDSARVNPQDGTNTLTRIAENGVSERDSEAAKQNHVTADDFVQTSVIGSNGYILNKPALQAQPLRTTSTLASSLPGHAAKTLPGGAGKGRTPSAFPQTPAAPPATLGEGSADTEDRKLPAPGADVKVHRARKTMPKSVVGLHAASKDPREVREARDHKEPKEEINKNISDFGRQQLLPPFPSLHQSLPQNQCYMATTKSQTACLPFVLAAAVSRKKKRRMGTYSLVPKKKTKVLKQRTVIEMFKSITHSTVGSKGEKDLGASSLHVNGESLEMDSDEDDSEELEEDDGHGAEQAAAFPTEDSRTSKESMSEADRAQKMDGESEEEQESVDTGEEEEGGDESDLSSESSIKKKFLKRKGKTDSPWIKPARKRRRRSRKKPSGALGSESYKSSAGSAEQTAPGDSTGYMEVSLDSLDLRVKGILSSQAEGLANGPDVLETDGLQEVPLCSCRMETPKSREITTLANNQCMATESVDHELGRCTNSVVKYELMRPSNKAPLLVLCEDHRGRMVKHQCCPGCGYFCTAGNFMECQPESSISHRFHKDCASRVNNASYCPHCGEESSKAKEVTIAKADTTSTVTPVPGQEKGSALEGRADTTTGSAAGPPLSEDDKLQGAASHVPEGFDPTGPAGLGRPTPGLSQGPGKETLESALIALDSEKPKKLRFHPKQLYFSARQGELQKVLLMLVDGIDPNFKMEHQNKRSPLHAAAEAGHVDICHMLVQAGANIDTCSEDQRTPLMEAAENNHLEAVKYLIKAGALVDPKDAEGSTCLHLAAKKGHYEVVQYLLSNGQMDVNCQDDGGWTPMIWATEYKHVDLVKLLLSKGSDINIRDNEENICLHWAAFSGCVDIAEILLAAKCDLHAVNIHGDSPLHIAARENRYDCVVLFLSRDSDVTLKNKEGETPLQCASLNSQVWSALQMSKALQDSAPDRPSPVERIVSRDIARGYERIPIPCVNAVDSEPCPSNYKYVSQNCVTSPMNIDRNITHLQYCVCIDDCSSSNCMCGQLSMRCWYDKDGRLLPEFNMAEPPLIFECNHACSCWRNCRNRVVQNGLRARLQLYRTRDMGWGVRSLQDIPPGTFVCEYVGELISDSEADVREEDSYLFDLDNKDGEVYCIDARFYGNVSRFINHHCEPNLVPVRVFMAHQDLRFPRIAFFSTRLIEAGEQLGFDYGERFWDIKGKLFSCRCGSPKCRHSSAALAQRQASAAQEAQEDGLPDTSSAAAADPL
The experiment in a line: Triple SILAC pull-down after UNC0638 treatment of 293T cells, DMSO/UNC0638 ratio of protein captured by 3×MBT.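 As to all read-outs here: mass spectrometry (Q-Exactive) SILAC quantitation, DMSO/UNC0638 ratio computed after subtracting 3×MBTD355N mutant pull-down background, only proteins with at least twofold 3×MBT over mutant signal considered.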 It counts as cell-based. Details: endogenous in cells; host or cells: HEK 293T. Conditions: for Relative to UNC0638 UNC Heavy / Relative to UNC0638 UNC Light: SILAC ratio DMSO/UNC0638 of protein pulled down with 3xMBT; for Relative to UNC0638 UNC Heavy: UNC0638 in heavy SILAC media; for Relative to UNC0638 UNC Light: UNC0638 in light SILAC media; for Relative to UNC0638 Average: average of UNC Light and UNC Heavy experiments.

A further test relates to 3×MBT domain of L3MBTL1. As to the kind of experiment: Triple SILAC pull-down, 3xMBT/3xMBTD355N ratio (cytoplasmic, nuclear and chromatin fractions of 293T cells).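 As to all read-outs here: proteins quantified with MaxQuant, requiring at least two unique peptides and quantification in both label directions, normalized to the mean of proteins from a digested loading control.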 Type of test: binding, human. Conditions: SILAC ratio, pull-down 3xMBT vs 3xMBTD355N; for 3xMBT/D355N UNC Heavy: experiment with UNC0638 in heavy SILAC media; for 3xMBT/D355N UNC Light: experiment with UNC0638 in light SILAC media.

B1: SF3B1 (protein, UniProt O75533 1-1304, looked up)
Splicing factor 3B subunit 1: MAKIAKTHEDIEAQIREIQGKKAALDEAQGVGLDSTGYYDQEIYGGSDSRFAGYVTSIAATELEDDDDDYSSSTSLLGQKKPGYHAPVALLNDIPQSTEQYDPFAEHRPPKIADREDEYKKHRRTMIISPERLDPFADGGKTPDPKMNARTYMDVMREQHLTKEEREIRQQLAEKAKAGELKVVNGAAASQPPSKRKRRWDQTADQTPGATPKKLSSWDQAETPGHTPSLRWDETPGRAKGSETPGATPGSKIWDPTPSHTPAGAATPGRGDTPGHATPGHGGATSSARKNRWDETPKTERDTPGHGSGWAETPRTDRGGDSIGETPTPGASKRKSRWDETPASQMGGSTPVLTPGKTPIGTPAMNMATPTPGHIMSMTPEQLQAWRWEREIDERNRPLSDEELDAMFPEGYKVLPPPAGYVPIRTPARKLTATPTPLGGMTGFHMQTEDRTMKSVNDQPSGNLPFLKPDDIQYFDKLLVDVDESTLSPEEQKERKIMKLLLKIKNGTPPMRKAALRQITDKAREFGAGPLFNQILPLLMSPTLEDQERHLLVKVIDRILYKLDDLVRPYVHKILVVIEPLLIDEDYYARVEGREIISNLAKAAGLATMISTMRPDIDNMDEYVRNTTARAFAVVASALGIPSLLPFLKAVCKSKKSWQARHTGIKIVQQIAILMGCAILPHLRSLVEIIEHGLVDEQQKVRTISALAIAALAEAATPYGIESFDSVLKPLWKGIRQHRGKGLAAFLKAIGYLIPLMDAEYANYYTREVMLILIREFQSPDEEMKKIVLKVVKQCCGTDGVEANYIKTEILPPFFKHFWQHRMALDRRNYRQLVDTTVELANKVGAAEIISRIVDDLKDEAEQYRKMVMETIEKIMGNLGAADIDHKLEEQLIDGILYAFQEQTTEDSVMLNGFGTVVNALGKRVKPYLPQICGTVLWRLNNKSAKVRQQAADLISRTAVVMKTCQEEKLMGHLGVVLYEYLGEEYPEVLGSILGALKAIVNVIGMHKMTPPIKDLLPRLTPILKNRHEKVQENCIDLVGRIADRGAEYVSAREWMRICFELLELLKAHKKAIRRATVNTFGYIAKAIGPHDVLATLLNNLKVQERQNRVCTTVAIAIVAETCSPFTVLPALMNEYRVPELNVQNGVLKSLSFLFEYIGEMGKDYIYAVTPLLEDALMDRDLVHRQTASAVVQHMSLGVYGFGCEDSLNHLLNYVWPNVFETSPHVIQAVMGALEGLRVAIGPCRMLQYCLQGLFHPARKVRDVYWKIYNSIYIGSQDALIAHYPRIYNDDKNTYIRYELDYIL
With B1, in the test with G9a and GLP, the “Relative to UNC0638 UNC Heavy” value was found to be 0.11 log base 2, the “Relative to UNC0638 UNC Light” value was 0.18 log base 2 and the “Relative to UNC0638 Average” value came to 0.14 log base 2. In the test on 3×MBT domain of L3MBTL1, the “3xMBT/D355N UNC Heavy” value was found to be 3.17 log base 2 and the “3xMBT/D355N UNC Light” value turned out to be 3.31 log base 2.

B2: SH3PXD2B (protein, UniProt A1X283 1-911, looked up)
SH3 and PX domain-containing …: MPPRRSIVEVKVLDVQKRRVPNKHYVYIIRVTWSSGSTEAIYRRYSKFFDLQMQMLDKFPMEGGQKDPKQRIIPFLPGKILFRRSHIRDVAVKRLIPIDEYCKALIQLPPYISQCDEVLQFFETRPEDLNPPKEEHIGKKKSGGDQTSVDPMVLEQYVVVANYQKQESSEISLSVGQVVDIIEKNESGWWFVSTAEEQGWVPATCLEGQDGVQDEFSLQPEEEEKYTVIYPYTARDQDEMNLERGAVVEVIQKNLEGWWKIRYQGKEGWAPASYLKKNSGEPLPPKPGPGSPSHPGALDLDGVSRQQNAVGREKELLSSQRDGRFEGRPVPDGDAKQRSPKMRQRPPPRRDMTIPRGLNLPKPPIPPQVEEEYYTIAEFQTTIPDGISFQAGLKVEVIEKNLSGWWYIQIEDKEGWAPATFIDKYKKTSNASRPNFLAPLPHEVTQLRLGEAAALENNTGSEATGPSRPLPDAPHGVMDSGLPWSKDWKGSKDVLRKASSDMSASAGYEEISDPDMEEKPSLPPRKESIIKSEGELLERERERQRTEQLRGPTPKPPGVILPMMPAKHIPPARDSRRPEPKPDKSRLFQLKNDMGLECGHKVLAKEVKKPNLRPISKSKTDLPEEKPDATPQNPFLKSRPQVRPKPAPSPKTEPPQGEDQVDICNLRSKLRPAKSQDKSLLDGEGPQAVGGQDVAFSRSFLPGEGPGRAQDRTGKQDGLSPKEISCRAPPRPAKTTDPVSKSVPVPLQEAPQQRPVVPPRRPPPPKKTSSSSRPLPEVRGPQCEGHESRAAPTPGRALLVPPKAKPFLSNSLGGQDDTRGKGSLGPWGTGKIGENREKAAAASVPNADGLKDSLYVAVADFEGDKDTSSFQEGTVFEVREKNSSGWWFCQVLSGAPSWEGWIPSNYLRKKP
Take B2: in the test with G9a and GLP, the “Relative to UNC0638 UNC Heavy” value is recorded as −0.09 log base 2, the “Relative to UNC0638 UNC Light” value was determined as 0.37 log base 2 and the “Relative to UNC0638 Average” value is 0.14 log base 2. In the test on 3×MBT domain of L3MBTL1, the “3xMBT/D355N UNC Heavy” value is on record as 3.07 log base 2 and the “3xMBT/D355N UNC Light” value amounted to 3.71 log base 2.

B3: DSTN (protein, UniProt P60981 2-165, looked up)
Destrin: ASGVQVADEVCRIFYDMKVRKCSTPEEIKKRKKAVIFCLSADKKCIIVEEGKEILVGDVGVTITDPFKHFVGMLPEKDCRYALYDASFETKESRKEELMFFLWAPELAPLKSKMIYASSKDAIKKKFQGIKHECQANGPEDLNRACIAEKLGGSLIVAFEGCPV
B3: in the test with G9a and GLP, the “Relative to UNC0638 UNC Heavy” value was determined as 0.24 log base 2, the “Relative to UNC0638 UNC Light” value is reported as 0.04 log base 2 and the “Relative to UNC0638 Average” value is 0.14 log base 2. In the test with 3×MBT domain of L3MBTL1, the “3xMBT/D355N UNC Heavy” value stood at 3.00 log base 2 and the “3xMBT/D355N UNC Light” value amounted to 2.54 log base 2.

Source of the values: patent US20140274782A1, “AFFINITY REAGENTS AND METHODS FOR DETECTION, PURIFICATION, AND PROTEOMIC ANALYSIS OF METHYLATED PROTEINS” (The Board of Trustees of the Leland Stanford Junior …, priority 2013, published 2014).
